The record followed here is paper PMC8677511.

The data set deals with TDP-43 recombinant (rTDP-43) (UniProt Q13148 1-414). As to the kind of experiment: pull-down.
TDP-43 recombinant (rTDP-43), sequence (Q13148 whole entry): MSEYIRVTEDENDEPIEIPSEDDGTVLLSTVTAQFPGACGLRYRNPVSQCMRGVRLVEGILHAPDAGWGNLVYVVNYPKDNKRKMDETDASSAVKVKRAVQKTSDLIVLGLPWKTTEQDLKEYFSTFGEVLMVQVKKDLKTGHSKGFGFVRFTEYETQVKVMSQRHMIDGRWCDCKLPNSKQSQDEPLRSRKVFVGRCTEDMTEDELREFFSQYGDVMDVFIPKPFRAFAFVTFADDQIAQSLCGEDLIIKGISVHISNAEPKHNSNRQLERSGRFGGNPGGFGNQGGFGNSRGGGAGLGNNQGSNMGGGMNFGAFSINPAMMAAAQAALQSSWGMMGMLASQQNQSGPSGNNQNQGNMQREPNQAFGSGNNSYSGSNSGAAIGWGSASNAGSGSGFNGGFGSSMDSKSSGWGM

Regarding UGUGUGUGUGUGCGCGUGUGCGUGUG (ssRNA) [GRN (nt262-288) probe], the binding result is recorded as “binds”.

For UUUUUUGUGUGUUAAUGGUGUGUG (ssRNA) [G3BP1 3' UTR probe (nt334-358)], the binding result is recorded as “binds”.

As to ACACACACACACACACACACACAC (ssRNA) [(AC)12], the binding result was “no binding”.
